The values below come from article PMC5986701, “A quantitative characterization of interaction between prion protein with nucleic acids”.

The target of data set [1] is T1, alpha-PrP (human recombinant prion protein) (human, UniProt P04156 23-230). The data set can be described thus: fluorescence anisotropy; pH 5. Background: In fluorescence polarisation assays a small probe gives low polarisation when free and higher when bound to something large.
The target in data set [2] is T1, alpha-PrP (human recombinant prion …). The data set can be described thus: fluorescence anisotropy; pH 7.2.

A word on the Kd: it is the constant that tells how readily two partners part at equilibrium. In the case of GCCCCAUGGAGGUGGCUGGGGCCAGCCUCAUGGAGGUGGCUGGGGC (structured_RNA) [Cm47 (Cm48 in Table 2)], the Kd in data set [1] (pseudoknot) worked out at 1510 ± 350 nM; in data set [2] (pseudoknot), 1610 ± 400 nM.

GUCAAGGACAAGGUCAAGGUCAAGGUUCUUUUACUGCUUUGGGC (structured_RNA) [Ym44]: the figures for the Kd in data set [1] (pseudoknot) and in data set [2] (pseudoknot) were 1630 ± 400 nM and 1790 ± 570 nM, respectively.

As to GCCUCAUGGUGGUGGCUGGGGGCAGCCUCAUGGUGGUGGCUGGGG (structured_RNA) [Hm45], the Kd in data set [1] (pseudoknot) turned out to be 2900 ± 410 nM; in data set [2] (pseudoknot) it was 3340 ± 150 nM.

B1: MNV (structured_RNA)
RNA: GGGUUCAUAGCCUAUUCGGCUUUUAAAGGACCUUUUUCCCUCGCGUAGCUAGCUACGCGAGGUGACCCCCCGAAGGGGGGUGCCCC
B1: the Kd in data set [2] was determined as 4150 ± 610 nM.

B2: RQT157 (RQ157) (structured_RNA)
RNA: GGGGUUUCGAACCGGAAUUUGAGGGAUGCCUAGGCAUCCCCCGUGCGUCCCUUUACGAGGGAUUGUCGACUCUAGAGGAUCCGGUACCUGAGGGAUGCCUAGGCAUCCCCGCGCGCCGGUUUCGGACCUCCAGUGCGUGUUACCGCACUGUCGACCC
Take B2: in data set [2], the Kd stood at 2890 ± 1500 nM.

B3: Lef-DNA (dsDNA)
DNA 1: GAGCTTCAAAGGGTG
DNA 2: CACCCTTTGAAGCTC
Regarding B3, the dissociation constant (Kd) is 1250 ± 320 nM in data set [1] and 5730 ± 570 nM in data set [2].

B4: RQ11+12 (structured_RNA)
RNA: GGGGUUUCCAACCGGAAUUUGAGGGAUGCCUAGGCAUCCCCCGUGCGUCCCUUUACGAGGGAUUGUCGACUCUAGUCGACGUCUGGGCGAAAAAUGUACGAGAGGACCUUUUCGGUACAGACGGUACCUGAGGGAUGCCUAGGCAUCCCCGCGCGCCGGUUUCGGACCUCCAGUGCGUGUUACCGCACUGUCGACCC
For the molecule B4, in data set [2], the Kd is 2200 ± 1500 nM.

Regarding CAGGGUGGCACCUGGGGGCAGCCCCACGGUGGUGGCUG (structured_RNA) [Mm38], in data set [1] (pseudoknot), the Kd worked out at 3820 ± 400 nM.

B5: NC-DNA (dsDNA)
DNA 1: GACTTGTGGAAAATCTCTAGCAGTGCAT
DNA 2: ATGCACTGCTAGAGATTTTCCACAAGTC
Take B5: the Kd was found to be 1110 ± 230 nM in data set [1] and 1290 ± 210 nM in data set [2].
